# According to the domain aggregation screens of Martell et al. (2025):
# Assay: soluble fraction after stress (log2 fold change); higher = more stays soluble; pooled small domains, quantitative proteomics
# Conditions: stress: 50 degC
# Procedure, shortened: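 After stress at 50°C, the amount of each protein still soluble was measured. This was done on pooled custom libraries of small protein domains, using high-throughput quantitative proteomics. The figure given is a base-two log fold change and stands for aggregation propensity, with higher values meaning more protein stays in solution.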
row,Sequence,soluble fraction (log2)
1,HMTTGLETYPGKIAVVSDDFIDGEGRVQLDGALWRAKTKDHQQLKQGDHVTIVNVKGLTLTVMPDD,0.23
2,HMSSQGQNTKTGTVTASALYVRSGAGTNYSQIGYLLKNTKVEIVGQTGSWYKIKFGSGTGYVSSKYIK,-0.652
3,HMFLDKDTLNQLYRFGIALTGNEQDSQDVLHTAIERFLRNKPQQINQQAAYIRTIMRNYWYDELRKLKTQ,-1.61
4,HMEKEEELNSIRPDLDGNDIMEILGVPAGPKVGKAYNYLLNVRLDEGPLSRAEAISRLEAWWENQ,-0.368
5,HMGQEEKDIFLKLINISGIGPKLALNILSGIEASELEEAVRNTNVTRLSMVPGIGQKTALRIIMELSDKLE,-0.432
6,HMQLFKFKNAMMELAKNKNITLDTAEKAIGLEAGFTELVARGVKELALSDVIKISKYFNTTMDSVLD,-0.903
7,HMDEEDVLNELIRRLALTADDRLLLSLSYEDGLSSRKIATLLETSAATVQRRLAGLHHQLEQALRVMGLA,-0.454
8,HMGGEGQIEIREREGIPAEAWVDGVMRGQTPLRVEHVSIGTRRVELRAEGRPPVAADVLVRPTVTALVELS,0.271
9,HMDPLADLFSRIRNAQMRNKKVVTSPASKLRAGILEVLAKEGYIRGYAMTQHASGKNELDIELN,-1
10,HMYDASELNKALEEAKKLDLNNYTEESSEALKNAISKAEEALLSKDKETINSALEELNKAMDSL,0.112
11,HMPPSRFNELSMWFQEQLTEAGLKVDSGALKMLIEWLGQDQARLPSIIEVLVSTYGTKKKLTVDEIEPFL,0.234
12,HMRSVTLQTDREGDILYVDGKQIGVSPQRLELSYGVHTIRAERGEQHTEKELEVTETGGETVVTLGFG,0.129
13,HMQFQVHEIKGKEYYIHVVEKGNTLYAISRMYSVPIETLKEENPRLNTTELTIGDRLLIPLDEVKRKNIE,-0.128
14,HMSINTIIAKNLNRLRNERNLSLGQLAELSGVSKVMLSQIEKGDSNPTVNTIWKIASGLNVPYTAILDQP,-0.0848
15,HMAREQISVSQMVRDVRDGQVKNIEVLGQELRLSYADGSQKVTRKEEGQQALEILFASDIDLAALDLEVQ,0.0848
16,HMRKRLLQLVHIGKSQLGMDDETYRSLLSQQFYQNSAKNISYSELVKLVKILQQKGAKIRLPH,-1.9
17,HMNQSKYQTIADELKSKILSGEYPENTTIPPELQLQKDYQVSRHTIRQAIALLANEGFLRKEKGSGTYVDV,0.0512
18,HMHDLDALTGLSGEARSKVYEEGSVFVAGEMWSAKSDAVIPAGSSIRVVRREGFILVVEKDS,-1.12
19,HMSTSRAEIIAFLKSNPSSEYKHELETKLDEMDWAEAVKGNSEESFLAYKQRQPNGTHNGEADEKLKVLLV,0.191
20,HMEVLSKRGSTGTEVINIQKKLKNWGYYTGSVDGIYGKLTEEAVRYFQRTNGLTVDGIAGKNTLAAMGIA,-0.356
21,HMNEQVAVVSGSQVNVRSGPGTTSAVVGQVSKGDNLPVLNQSGDWYQIKLPGGNAGWVAGWLVSLRPTT,-0.0873
22,HMADYSGYLGKKGKVIAPLRPAGTALIDGERVDVVSFGDYIDKDSEIEVVKIEGSKLLVKKY,0.141
23,HMRARTLSTTGGESLLTLAESLYPDDDRARARFIEATAAANPKLFADIAALTRVLPAGTTLRMPDLRA,0.0417
24,HMFIPGDSVRVHVKVVEGSNERIQMFEGVVIARQGSGVRENFTVRRISYGVGIERTFPVHSPRL,0.103
25,HMIKNKDRIQYTLAHRKAFRKIEKELLGYNTFRSLFHDLDKVFLYPFFDYKKVHNFHRNHAHH,0.199
26,HMGETISVPAVRSLAYDRAVDMLTAEGLKGIVADSVYDNRTQPGTVIEQNPKAGTIVKEGREVYLTINA,0.157
27,HMNPYLWQRVRLLFSNVGVINNSATVDLVFSAPKGVLTEDLANNFSAALVKKGKEELGLDDIKITISVIPN,-2.94
